The text below walks through data of US20180312819A1 (AP BIOSCIENCES, published 2018).

For assay [1], the target named is T1, VEGF165 (293-VE) (UniProt P15692-4 27-191).
T1 construct: the UniProt canonical entry is a longer isoform; also called VEGF-A
Kind of assay: solution binding: about 40 pM VEGF165 incubated with the protein, free VEGF read by DuoSet ELISA. As to the method:
(§1) After incubation, free VEGF was detected using the Human VEGF DuoSet ELISA Development Kit (R&D Systems Catalog No. DY293B) according to the manufacturer's instructions. The data was analyzed by sigmoidal curve fitting using Prism 4.
(ELISA stands for enzyme-linked immunosorbent assay.)

Assay [2] concerns the target T1, VEGF165 (293-VE). Nature of the assay: solution binding: VEGF165 incubated 45 min at 37 C with titrated VID, free VEGF measured by ELISA (Human VEGF DuoSet kit). The method, then: as §1

T1 sequence (P15692 other isoform, or with tags, fused parts or gaps limits assumed): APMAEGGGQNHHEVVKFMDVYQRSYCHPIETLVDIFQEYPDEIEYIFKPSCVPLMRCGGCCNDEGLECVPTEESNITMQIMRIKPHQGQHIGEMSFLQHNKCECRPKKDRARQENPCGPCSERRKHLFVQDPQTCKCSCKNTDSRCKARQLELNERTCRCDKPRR

B1: VID (fragment of ACVP-1 wherein the VID has the Fc domain fused to its C-terminus) (Fc fusion)
chain: GRPFVEMYSEIPEIIHMTEGRELVIPCRVTSPNITVTLKKFPLDTLIPDGKRIIWDSRKGFIISNATYKEIGLLTCEATVNGHLYKTNYLTHRQTNTIIDVVLSPSHGIELSVGEKLVLNCTARTELNVGIDFNWEYPSSKHQHKKLVNRDLKTQSGSEMKKFLSTLTIDGVTRSDQGLYTCAASSGLMTKKNSTFVRVHEK
notes: not shown: human IgG1 Fc region as in ACVP-1
By EC50 is commonly meant the concentration that produces a half-maximal response. A lower EC50 goes with an effect from little substance. For B1, the EC50 with VEGF165 (293-VE) [1] was about 0.7 nM; with VEGF165 (293-VE) [2] it was 0.0731 nM.
